Measurements as given in US20190202912A1 (NEXTCURE, published 2019).
Residue numbers refer to the chain shown, from its start.

T1: S15-extra cellular domain (ECD) monomer (human, UniProt Q6ZMC9 20-263)
T1 construct: also called S15 monomer protein
T1 sequence: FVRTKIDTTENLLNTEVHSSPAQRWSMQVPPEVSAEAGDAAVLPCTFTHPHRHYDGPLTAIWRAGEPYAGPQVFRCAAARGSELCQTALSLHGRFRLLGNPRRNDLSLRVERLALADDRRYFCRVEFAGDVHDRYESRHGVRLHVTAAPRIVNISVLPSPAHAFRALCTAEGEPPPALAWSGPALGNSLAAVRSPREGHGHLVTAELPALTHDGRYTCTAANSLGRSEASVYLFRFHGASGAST

B1: 1C3 (antibody, V domains shown)
VH: QVQLKQSGAELVKPGASVKISCKASGYIFTDYYVNWVKQRPGQGLEWIGKIGPGSVSIYYNEKFKGKATLTADKSSSTAYMQLSSLTSEDSAVYFCASYYYGFAYWGQGTLVTVSA
VL: DIVMTQAAPSVPVTPGESVSISCRSSKSLLHSNGNTYLYWFLQRPGQSPQLLIYRMSNLASGVPDRFGGSGSGTAFTLRISRVEAEDVGFYYCMQHLEYPYTFGGGTRLEIK
notes: Mouse anti-human Siglec-15 mAb
B2: 6F8 (antibody, V domains shown)
VH: B1 VH with A9P, K13R, K23E, I28T, Q43R, G66D, S85G
VL: DIVMTQAAPSVPVTPGESVSISCRSSKSLLHSNGNTYLYWFLQRPGQSPQLLIYRMSNLASGVPDRFGGSGSGTAFTLRISRVEAEDVGVYYCMQHLEYPYTFGGGTKLEIKR
notes: as for B1
B3: 8C8 (antibody, V domains shown)
VH: B1 VH with I28T, G54E, N61S, G66A
VL: B1 VL with F90V, R108K
notes: as for B1
B4: 104B (antibody, V domains shown)
VH: QVQLQQSGPELARPGASVKLSCKASGYTFTSYGISWVKQRTGQGLEWIGQIHPRSGNTYYNENFKGKATLTAAKSSSTAYLELRSLTSEDSAVYFCAREGGPDYWGQGTTLTVSS
VL: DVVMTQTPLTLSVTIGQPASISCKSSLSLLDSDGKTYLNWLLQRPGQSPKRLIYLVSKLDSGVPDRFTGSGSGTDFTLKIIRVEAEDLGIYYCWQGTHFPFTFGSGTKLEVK
notes: Mouse anti-human Siglec-15 mAb; also called NC104
B5: 3H10 (antibody, V domains shown)
VH: EVQLQQSGAELVRPGASVKLSCTASGFNIKDYYMHWVKERPEQGLEWIGRIDPEDGDIEYDPKFQGKATMTADTSSNTAYLQFSSLTSEDTAVYYCVTDYDYDGGWFAYWGQGTLVTVSA
VL: QIILTQSPAIMSASPGEKVTMTCSASSSTSFMHWYQQKPGTSPKRWIFDTSKLASGVPGRFIGSGSGTSYSLTISTMEAEDAATYYCHQRSAYPWTFGGGTKLEIK
notes: as for B1
B6: 83B (antibody, V domains shown)
VH: EVQLQQSGPELVKPGASVKMSCKASGYTFTDYNMHWVKQSHGKSLEWIGYINPNNGGTSYNQKFKDKATLTVNKSSSTAFMELRSLASEDSAVYYCARSDWEDCWGQGTTLTVSS
VL: EIQMTQSPSSMSASLGDRITITCQATQDIVKNLNWYQQKPGKPPSFLIYYATELAEGVPSRFSGSGSGSDYSLTISNLESEDFADYYCLQFYEFPYTFGGGTKLEIK
notes: Mouse anti-human Siglec-15 mAb; also called NC83
B7: 80A (antibody, V domains shown)
VH: QVQLKQSGAELVRPGASVKLSCRASGYTFTDFYINWVKQRPGQGLEWIARIYPGSDETYYNEKFKDKVTLTAEKSSSTAYMQLSSLTSEDSAVYFCALWFFDVWGTGTTVTVSS
VL: DIVMTQSPSSLTVTAGEKVTMSCKSNQSLLNSGDQKNYLTWYQQKPGQPPKLLIYWASTRESGVPDRFTGSGSGTDFTLTISSVQAEDLAIYYCQNDYSYPLTFGAGTKLELK
notes: Mouse anti-human Siglec-15 mAb; also called NC80
B8: 93B (antibody, V domains shown)
VH: QVQLKQSGAELVRPGASVKLSCKASGYTFTDYYINWVKQRPGQGLEWIARIYPGNGNTDYNEKFKDKATLTAEKSSTTAYIQLSSLTSEDSAVYFCCLWYFDVWGTGTTVTVSS
VL: B7 VL with N26S, D34N, S83N, A86P, I91V, Y100F, L102F, A106S, K109E, L112M
notes: Mouse anti-human Siglec-15 mAb; also called NC93
B9: 10G9 (antibody, V domains shown)
VH: EVQLLETGGGLVQPGGSRGLSCEGSGFTFSDFWMSWVRQTPGKTLEWIGDINSDGSAVNYAPSIKDQFTIFRDNDKRTLHLQMINVRSEDTATYFCVRYDDYGYFDVWGTGTTVTVSS
VL: QAVVTQESALTTSPGETVTLTCRSSTGAVTTSNYANWVQEKPDHLFTGLIGGTNNRAPGVPARFSGSLIGDKAALTITGAQTEDEAIYFCALWYSNHWVFGGGTKLTVL
notes: as for B1
B10: 8H8 (antibody, V domains shown)
VH: B9 VH with D31G, V58I, Q67R, R77N, H80Y, I84N
VL: B9 VL with T26S, S32G, Y34F
notes: as for B1
B11: 105A (antibody, V domains shown)
VH: EVQLQQSGAELVRPGASVKLSCTASGFNIKDDYMHWVKQRPEQGLEWIGCIDPENGDIEYASRFQGKATMTADTSSNTAYLQLTSLTSADTAVYYCTTYVGFGYWGQGTLVTVSA
VL: DVLMTQTPLSLPVSLGDQASISCRSSQSIVHSNGNTYLEWYLQKPGQSPKLLIYKVSNRFSGVPDRFSGSGSGTDFTLKISRVEAEDLGVYYCFQGSHVPLTFGAGTKLELK
notes: Mouse anti-human Siglec-15 mAb; also called NC105
B12: 1C12 (antibody, V domains shown)
VH: EVQLVESGGGLVKPGGSLKLSCAASGFSFSDYGMHWVRQAPEKGLEWVAYISSGSSILYYADIVKGRFTISRDNAKNTLFLQMTSLRSEDTAMYYCARDHYHGNGSDYWGQGTTLTVSS
VL: B11 VL with L101W, A105G, L111I
notes: as for B1
B13: 77A (antibody, V domains shown)
VH: B11 VH with I58T, R63K, M70I, A79V, T84S, A89E
VL: B11 VL with T7S, S28N, Q43K, V90M
notes: Mouse anti-human Siglec-15 mAb; also called NC77
B14: 1B2 (antibody, V domains shown)
VH: B12 VH with L11F, S28T, L58I, I63T
VL: B11 VL with L101W, A105G, L111I
notes: as for B1
B15: 6A (antibody, V domains shown)
VH: B11 VH with I58T, R63K, G66D, M70I, A72T, T84S, A89E, G103A, A115T
VL: B11 VL with K79R
notes: Mouse anti-human Siglec-15 mAb; also called NC6
B16: 99B (antibody, V domains shown)
VH: QVQLQQSGAELARPGASVKLSCKASGYTFTSDGITWLKQRTGQGLEWIGQIHPRSGNTYYNEKFKGKATLTADKSSSTAYMELRSLTSEDSAVYFCAKTGTGDYWGQGTTLTVSS
VL: not shown
notes: Mouse anti-human Siglec-15 mAb; also called NC99
B17: 82B (antibody, V domains shown)
VH: B16 VH with L37V, E62G, K74R, A79T
VL: not shown
notes: Mouse anti-human Siglec-15 mAb; also called NC82
B18: 92A (antibody, V domains shown)
VH: DVQLQESGPGLVKFSQSLSLTCSVTGYSITSGYYWNWIRQFPGNKLEWMGYIRHDGSNNYNPSLKNRISITRDTSKNQFFLKLNSVITEDTATYYCVREIYDGSSGYFDVWGTGTTVTVSS
VL: QIVLTQSPAIMSASLGEEITLICSASSSVSYMHWYQQKSGTSPKLLIYRTSNLASGVPSRFSGSGSGTFYSLTISSVEAEDAADYYCHQWSSWTFGGGTQLEIK
notes: Mouse anti-human Siglec-15 mAb; also called NC92

biological target: T1, S15-extra cellular domain (ECD) monomer; test: BLI (Octet RED96), mAb on anti-human Fc sensors, S15-ECD monomer in solution, global fit
Experimental: Optimized KD experiments were performed on a ForteBio Octet RED96 instrument using anti-human Fc capture (AHC, 18-5060; ForteBio) sensors. Assay buffer was PBS containing 0.05% Tween-20 and regeneration buffer was 10 mM glycine (pH 1.5). First the antibodies were loaded at 1 μg/mL for 600 seconds. This was followed by a 60 second baseline step, a 300 second association step in S15-extra cellular domain (ECD) monomer, and finally a 1200 second dissociation step. The monomer concentrations ranged from 100 nM to 1.56 nM in a two-fold dilution series and a blank well was included. Data was processed using ForteBio's Data Analysis Software 7.0; a global fit was used, along with reference well subtraction. Reported values are the average of at least three independent octet runs.

Kd | koff | kon | Binder
0.58 nM | 0.000174 s⁻¹ | 317000 M⁻¹ s⁻¹ | B1
0.44 nM | 0.000134 s⁻¹ | 304000 M⁻¹ s⁻¹ | B2
0.89 nM | 0.00023 s⁻¹ | 292000 M⁻¹ s⁻¹ | B3
3.08 nM | 5.9e-05 s⁻¹ | 23000 M⁻¹ s⁻¹ | B4
0.6 nM | 0.000178 s⁻¹ | 306000 M⁻¹ s⁻¹ | B5
1.19 nM | 0.000415 s⁻¹ | 353000 M⁻¹ s⁻¹ | B6
0.5 nM | 0.000175 s⁻¹ | 348000 M⁻¹ s⁻¹ | B7
0.88 nM | 0.000162 s⁻¹ | 185000 M⁻¹ s⁻¹ | B8
0.55 nM | 0.000152 s⁻¹ | 277000 M⁻¹ s⁻¹ | B9
1.3 nM | 0.00027 s⁻¹ | 209000 M⁻¹ s⁻¹ | B10
1.39 nM | 0.000102 s⁻¹ | 72000 M⁻¹ s⁻¹ | B11
4.01 nM | 0.000423 s⁻¹ | 105000 M⁻¹ s⁻¹ | B12
1.93 nM | 0.000143 s⁻¹ | 72000 M⁻¹ s⁻¹ | B13
4.33 nM | 0.000609 s⁻¹ | 143000 M⁻¹ s⁻¹ | B14
2.94 nM | 0.000211 s⁻¹ | 73000 M⁻¹ s⁻¹ | B15
3.86 nM | 0.000102 s⁻¹ | 32000 M⁻¹ s⁻¹ | B16
4.84 nM | 0.0001 s⁻¹ | 23000 M⁻¹ s⁻¹ | B17
1.42 nM | 0.00014 s⁻¹ | 99000 M⁻¹ s⁻¹ | B18
